The subject of one assay is MIK1^LRR. As to the kind of experiment: In vitro pull-down with MIK1^LRR. The class given is binding, Arabidopsis. As to conditions: Ni-NTA, excess AtLURE1.2, on ice 30 min, washed five times; SDS-PAGE, Coomassie blue. The source says: (§1) The genes of AtPRK3 ^LRR (residues 1–241), AtPRK4 ^LRR (residues 1–277), AtPRK5 ^LRR (residues 1–279), AtPRK6 ^LRR (residues 1–262), MIK1 ^LRR (residues 1–633), MIK2 ^LRR (residues 1–707) were amplified from Arabidopsis cDNA library by PCR and cloned into pFastBac-1 vector with a C-terminal 6 × His-tag. Their identities were confirmed by sequencing. The mature form of AtLURE1.1 (residues 20–94), AtLURE1.2 (residues 20–90), AtLURE1.3 (residues 21–91), and AtLURE1.4 (residues 20–90) were cloned into pFastBac-1 vector, with a modified N-terminal hemolin signal peptide and 6 × His-SUMO tag. Point mutation constructs were generated by QuickChange Site-Directed Mutagenesis Kit (Strategene). All the proteins were expressed using the Bac-to-Bac baculovirus expression system (Invitrogen) in High Five cells at 22 °C. One liter of High Five cells (2.0 × 10^6 cells mL^−1) cultured in the medium from Expression Systems was infected with 25 ml recombinant baculovirus and the media was collected after 72 h of infection. Secreted LRR proteins were purified using Ni-NTA (Novagen) and size-exclusion chromatography (Hiload 200, GE Healthcare) in buffer containing 10 mM Bis-Tris pH 6.0 and 100 mM NaCl. […]
(§2) The purified His-tagged ectodomains of AtPRK proteins and MIK1, 2 were used to pull-down the AtLURE1.2 peptide. […] All the eluted samples were analyzed by SDS-PAGE and visualized by Coomassie blue staining. […]

Assay [1] concerns AtPRK6^LRR with mutations of other AtLURE1.2-interacting residues. The experiment in a line: In vitro pull-down with other AtPRK6^LRR mutants. The class given is binding, Arabidopsis thaliana. As to conditions: mutations of other AtLURE1.2-interacting residues of AtPRK6^LRR.
From the text: as §1, §2

For the next assay, the system named is MIK1. As to conditions: cited from earlier work. The source says: (§3) More recently, progress has been made in the identification of sensory receptors for external cues during pollen tube guidance, [18]. Through genetic screening, two research groups identified different pollen tube specific receptor kinases (RKs) which can function as the receptors of AtLURE1 (refs. [19], [20]). […] By contrast, our data ... || page 2: co-receptor in the signaling system. Typos : - line 167 : Lue242 instead of Leu242 Reviewer #3 (Remarks to the Author): The Zhang et al. manuscript is a continuation of the study of pollen tube guidance to its female target to deliver sperm for fertilization, starting almost twenty years ago by the Higashiyama group, which recently reported a number of pollen receptor kinases (PRKs) as receptors for the attractant LURE1(- 2) from Arabidopsis. The Zhang et al study here caps it by elucidating the structure of LURE1-PRK6 on the atomic level. In principle, the study is an imminently publi ...

In the next assay the test system is MIK2. As to conditions: cited from earlier work.
From the text: as §3

The test system of a further assay is MDIS1. As to conditions: cited from earlier work.
From the text: as §3

Assay [2] deals with semi-in-vivo pollen tubes. The experiment in a line: Gelatin-beads assay, wild-type semi-in-vivo pollen tubes. The class given is cell-based, Arabidopsis. As to conditions: gelatin beads containing 250 nM peptide. The protocol: Attraction activities of mutant AtLURE1.2 peptides were examined for semi-in-vivo pollen tubes growing through cut, pollinated pistils by gelatin-beads assay and wavy assay, [20]. For the gelatin-beads assay, pollen tubes were grown on solid pollen germination medium poured into a mold made with 1-mm thick silicone rubber and cover glasses. After hand-pollination, the topside cover glass was removed and the medium was covered with hydrated silicone oil (KF-96–100CS; Shin-Etsu). Attraction of pollen tubes toward the peptide was evaluated using AtLURE1 peptide containing gelatine beads under an inverted microscope (IX71, Olympus) equipped with a micro-manipulator (Narishige). For the AtLURE1-responsive wavy assay, the purified AtLURE1.2 peptide was added to solid pollen germination medium, which was melted at 70 °C and then cooled to a certain degree. The mixture was mixed by vortexing and poured into the mold. Pollen tubes of each genotype were grown through cut styles, as mentioned above. Each peptide (25 μM in 10 mM Bis-Tris (pH 6.0) and 100 mM NaCl) was diluted to 250 nM by cultivation medium in both assays. To examine reactivity of PRK6 mutants to AtLURE1.2, constructs for PRK6 mutants, D234A, N239A, and ΔN239I240, were generated by site-directed mutagenesis from a wild-type PRK6 vector, pPZP221-pPRK6::PRK6-mRuby2 (ref. [20]). Wild-type and mutant PRK6 constructs were introduced into prk6–1 plant. After transformants were selected by the same criteria as previously, beads assay and wavy assay were performed in several T1 lines and single T2 line, respectively, for each genotype using 250 nM wild-type AtLURE1.2 peptide.

B1: AtLURE1.2: mature form of AtLURE1.2 (residues 20–90), defensin-like cysteine-rich peptide expressed in insect cells (protein)
chain: TLINGSSDEERTYSFSPTTSPFDPRSLNQELKIGRIGYCFDCARACMRRGKYIRTCSFERKLCRCSISDIK
modifications: left off: His6, N-terminal, cleaved | SUMO, N-terminal, cleaved
notes: mature form of AtLURE1.2 (residues 20–90), defensin-like cysteine-rich peptide expressed in insect cells
For the molecule B1, the “interaction in pull-down assay” value is given as “none of the other LRR proteins was found to interact” with MIK1^LRR and “much less striking effects” in assay [1]. In addition, in the assay with MIK1, the “binding to MIK1” value is on record as “directly binds”. For the same molecule, in the assay on MIK2, the “binding to MIK2” value is “directly binds”. In addition, in the assay on MDIS1, the “binding to MDIS1” value was “directly binds”. In addition, in assay [2] (Tukey−Kramer test, P < 0.05), the “pollen tube attraction activity (in words)” value is on record as “efficiently attracted pollen tubes”. In addition, in assay [2] (mean ± SD, 9–16 pollen tubes per assay, 3−5 assays), the “attraction frequency of pollen tubes” value came to 94 ± 7%.

These data come from PMC5673899, “Structural basis for receptor recognition of pollen tube attraction peptides” (Nature Communications, 2017).
